Experiment: yeast display, Sf9 membrane polyspecificity reagent, FACS + sequencing; frameworks hold sequencing errors
Procedure, shortened: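 Using colony PCR, genes from sorted yeast display clones were amplified, then sequenced on MiSeq at 2 × 250 and filtered by CDR length. The clones had been stained with 10% biotinylated, detergent-solubilized Sf9 membrane reagent for 1 hour at 4 °C and sorted by FACS into low and high (top ~1%) gates on anti-HA and streptavidin fluorescence. Polyreactivity labels come from the gate of origin.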

| Sequence | polyreactivity (PSR sort gate) |
| --- | --- |
| QVQLVESGGGLVQAGGSLRLSCAASGSIFVRNAMGWYRQAPGKERELVAADSVKGRFTISRDNAKNTVYLQMNSLKPEDTAVYYCNKDYIIRRGPIVYYGFDYWGQGTQVTVSS | low polyreactivity |
| QVQLVESGGRLVQAGGSLRLSCAASGLTLFRYAKGWYRTAPGKERELVAAIDYGGGTYYADSVKGRFTISRDNAKNTVYLQMNSLKPEDTAVYYCAVEPEYKYYEGDYWGQGTQVTVSS | low polyreactivity |
| QVQLVESGGGLVQAGGSLRLSCAASGRTFGGNTMGWSRQAPGKERELVAAISSGGSTYYADSVKGRFTISRDNAKNTVYLQMNSLKPEDTAVYYCAKSDPVGYYWDDPVTFDYWGQGTQVTVSS | low polyreactivity |
| QVQLVESGGGLDQAGGSIRLSCAASGFIYDGNAMGSYRQAPGKERELVAAISSGGGTTYYADSVKGRFTISRDNAKNTVYLQMNSLKPEDTAVYYCADDALSDEYDYWGQGTQVTVSS | low polyreactivity |
| QVQLVESGGGLVQAGGSLRLSCAASGFTFWSYAMGWYRQAPGKERELVAGITIDGNTYYADSVKGRFTISRDNAKNTVYLQMNSLKPEDTAVYYCATPVYRSTYEYDYWGQGTQVTVSS | low polyreactivity |
| QVQLVDSGGGLVQAGGSLRLSCAASGRIFRGYAMGWYRQAPGKERELVAAINRGSSTYYADSVKGRFTISRDNAKNTVYLQMNSLKPEDTAVYYCAVKGYLPYTGIFDYWGQGTQVTVSS | high polyreactivity |
| QVQLVESGGGLVQAGGSLRLSCAASGSIFYSYAKGWYRQAPGKERELVAAISWDASTYFADSVKGRFTISRDNAKYSVYLQMNSLKPEDTAVYYCNADIPYYFVYDAYDYWGQGTQVTVSS | low polyreactivity |
| QVQLVESVGGLVQAGGSLRLSCASSGNIFGAYAMGWYRQAPGKERELVAAIDSGSTNYADSVKGRFTISRDNAKNTVSLQMNSLKPEDTAVYYCNTKDQDVKVHHTSNTDDYWGQGTQVTVSS | low polyreactivity |
| QVQLVESGGGLVQAGGSLRLSCAASGRIFAVYAMGWYRQAPGKERELVAAINWNDGSTYYADSVKGRFTISRDNAKNTVYLQMNSLKPEDTAVYYCAARALSRSVYGKSGYKYGYWGQGTQVTVSS | high polyreactivity |
| QVQHVESGGGLVQAGGSLRLSCAASGSTFDYYAMGWYRQAPGKERELVAAISDSARSTFYADSVKGRFTISRDNAKNTVYLQMNSLKPEDTAVYYCAAYFWSYWRSEGYSWGQGTKVTVSS | high polyreactivity |
| QVQLVESGGGLVQAGGSLRLSCAASGSIFRSNAMGWYRQPPGKERELVAAITLSGGSTYYADSVKVRFTISRDNAKNTVYLQMNSLKPEDTAVYYCAAAYYLFSIHDYWGQGNQVTVSS | low polyreactivity |
| QVQLVESGGGLVEAGGSLRLSCAASGRTFSPNTMGWYRQAPGKEREFVAAITASGDSTYYADSVKGRFTISRDNAKNTVYLQMNSLKPEDTAVYYCATDSNWYWGFNYWGQGTQVTVSS | low polyreactivity |
| QVQLVESGGGLVQAGGSLRLSCAASGRTFIPYAMGWYRQAPGKERELVATIRRGGSTYYADSVKGRFTISRDNAKNTVYLQMYSLKPEDTAVYYCAATRYSFGPRRVDYWGQGTQVTVSS | high polyreactivity |
| QVQLGESGLGLVQAGGSLRLSCAAYGSIFYIYAMGWYRQAPGKERELVAAISRSGGRTYYADSVKGRFTISRDNAKNTVYLQMNSLKPEYTAVYYCAARDHYSNGGMNYWGQGTQVTVSS | high polyreactivity |
| QVQLVESGGGLVQAGGSLRLSCAASGFIFKKYAMGWYRQAPGKERELVAAISWSGGNTYYADSVKGRFTISRDNAKNTVYLQMNSLKPEDTAVYYCNAAGRRYKFDYWGQGTQVTVSS | high polyreactivity |
| QVQLVESGGGLVQAGGSLRLSCAASGFTFDYYAMGWYRQAPGKERELVAAISKRGGSTYYADSVKGRFTISRDNAKNTVYLQMNSLKPEDTAVYYCAAASYSSPRTSSGNYWGQGTQVYVSS | high polyreactivity |

| Sequence | polyreactivity (PSR sort gate) |
| --- | --- |
| QVQLVESGGGLVQAGGSLRLSCAASGYIFADYAMGWYRQAPGKEREFVARIRYRDGSTYYADSVKGRFTISRDNAKNTVYLQMNSLKPEDTAVYYCAAQLGRYSYYPMDYWGKGTQVTVSS | high polyreactivity |
| QVQLVESGGGLVQAGGSLGLSCAASGIILCYYDMGWYRQAPGKERELVAAITYSGSSTYYADSVKGRFTISRDNAKNTVYLLMNSLKPEDTAVYYCNAGWFYGAIWNYDYWGQGTKVTVSS | low polyreactivity |
| QVQLVESGGGLVQAGGSLRLSCAASGSTFHNYAMGWYRQAPGKERELVAGISVRGGGTYYADSVKGRFTISRDNAKNTVYLQMNSLKPEDTAVYYCAKRSRYYYRYDYWGQGTQVTVSS | high polyreactivity |
| QVQLVESGGGLVQAGGSLRLSCAASGGTFRSYAMGWFRQAPGKERELVASISSGGTTNYADSVKGRFTISRDNAKNTVYLQLTSLKPEDTAVYYCAKSYPGRAPGYYSWGQGTQVTVSS | low polyreactivity |
| QVQLVESGGGLDQAGGSLRLSCAASGSTFDGYAMGWYRRAPGKERELVAAITSSDGSTYYADSVKGRFTISRDNAKHTVYLQMYSLKPEDTAVYYCAAAPDWKDSLPPDMDYWGQGTQVSVSS | low polyreactivity |
| QVQLVETGGGLVQAGGSLRLSCAASGSTFWYNAMGWYRQAPGKESELVAAISRSGATTYYADSVKGRFTISRDNAKNTVYLQMNSLKPEDTAVYYCNKVRQYRYRGYTFDYWGQGTQVSVSS | low polyreactivity |
| QVQLVESGGGLVQAGGSLRLICAASGFIFDSYAMGWYRQAPGKARELVAAISVNGGTTYYADSVKGRFTISRDNAKNTVYLQMISLKPEDTAVYFCNADLYYDVGQPMDYWGQGTQVTVSS | low polyreactivity |
| QVQLVESGGVLVQAGGSLRLSCAASGRIFIGYAMGGNRQAPGKERELVAAISSSGGRTYYADSVKGRFTISRDNAKYTVYLQMNSLKPEDSAVYYCAKSFTRNTDYEYWGQGTQVTVSS | high polyreactivity |
| QVQLVESGGGLVQAGGSLRLSCAASGFPFSRYARGWSRQAPGTERELVATITARGGTTYYADSVKGRFTISRDNAKNTVYLQMNSLKPEDTAVYYCNAKAYYRPYYDYDYGGQGTQVTVSS | high polyreactivity |
| QDQLVESAGGLVQAGGSLRLSCAASARIFRYNAIGCYRQGPGKERVLVASITSAGSTNYADSVKGRFTISRDNAKNTVYLQMNSLKPEDTAVYYCNKRRAYGYYLFDYWGLGTQVTVSS | high polyreactivity |
| QVQLVESGGGLLQAGGSLRLISAASGGIFIRYAMGWYRQAPGKERALVAAITQSGAGTNYADSVKGRFTISRDNAKNTVYLQKYSLKPEDTAVYYCAKEALLPIRRLTHARTRYNFWGQGTQVTVSS | low polyreactivity |
| QVQLVESGGGLVQAGGSLRLSCAASGRIFKYYAMGWYRQAPGKERELVAAISQNGGRTYYADSVKGRFTISRDNAKNTVYLQMNSLKPEDTAVYYCAAGWRSYAGYYQGEFGYWGQGTQVTVSS | high polyreactivity |
| QVQLVESGGGLVQAGGSLRLSCAASGRTFGIYVMGWYRQAPGKEMEWVAAIRGGGTTYYADSVKGRFTISRENAKNTVYLQMNSLKPEDTAVYYCAAVVKWWGQSRYDYWGQGTQVTVSS | high polyreactivity |
| QDQLVESVGGLVQAGGSLRLSCAASGNTFRSYVLGWYRQAPGKERELVADISSGDGTNYADSVKGRFTISRDNAKNTVYLQMNSLKREDTAVYYCAKDVYNFRTTHSYFTGYDSWGQGTQVTVSS | low polyreactivity |
| QVQLVESGRGLVQAGGSLRLSCAASGSILVFYAMGWYRQAPGKERELVATITGSVGRTSYADSVKGRFTISRDNAKNTVYLQMNSLKPEDSAVYYCAADADTDVFYILQEYDYWGQGTQVTVSS | low polyreactivity |
| QVQLVESGGGLVQAGGSLRLSCAASGITIRLSALGGYRQAPGNERELVAAITSGGSTYADSVKGRFTISRDNAKNTVYLQMNSLKPEDTAVYYCNAEALVNGGYDYWGQGTQVTVSS | high polyreactivity |

— the nanobody polyreactivity screen of Harvey et al. (2022)
